Positions count from the first letter of the chain named.
B1: WT 1-1 (antibody, V domains shown)
VH: QVQLQQSGTELAKPGASVKFSCKASDYTFSTYWMYWIKQRPGQGLEWIGYINPSTGHTEYNQKFKDKATLTADKSSSTAYMQLNSLTSEDSAVYYCARRYYGPFAMDYWGQGTSVTVSS
VL: EIFLTQSPAIMSASPGEKVTMTCSASSSVSYAHWYQQKSGTSPKRWIYDSSKIASGIPVRFSGSGSGTSYSLTISSMEAEDAATYYCQNWSTNPYTFGGGTKLEIKR
B2: WT 1-7 (antibody, V domains shown)
VH: B1 VH with S30T, I51L
VL: B1 VL with S27T, I53L
B3: WT 1-4 (antibody, V domains shown)
VH: B1 VH with T55S, K63R, R99K
VL: B1 VL with S27T, S28T, I47L

target: T1, CTNI质控品重组抗原 (人心肌肌钙蛋白I, cTnI) (human, UniProt P19429 1-210, limits assumed); test: AMC sensor (biolayer interferometry), antibody immobilised at 10 ug/ml, cTnI QC recombinant protein in serial dilution in PBST
T1 construct: also called CTNI质控品重组蛋白
T1 sequence (P19429 whole entry): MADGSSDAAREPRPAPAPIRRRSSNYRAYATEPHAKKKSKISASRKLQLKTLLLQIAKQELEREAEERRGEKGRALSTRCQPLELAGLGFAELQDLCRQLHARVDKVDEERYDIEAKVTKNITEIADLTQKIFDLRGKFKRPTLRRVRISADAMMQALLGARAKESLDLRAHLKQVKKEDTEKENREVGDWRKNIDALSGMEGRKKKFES

Compared with B1, B2 is 2-fold lower in Kd: 1.43 nM for the first, 0.728 nM for the second. The second binds more tightly here.

In the case of B3, the Kd is reported as 1.04 nM.

Going from B1 to B2, the koff rises from 5.51e-05 s⁻¹ to 0.000132 s⁻¹ (2.4-fold).

Binder B3 has a koff of 3.9e-05 s⁻¹.

First: B1
Second: B2
The kon of the first is 4.7-fold lower: 38500 M⁻¹ s⁻¹ for the first, 182000 M⁻¹ s⁻¹ for the second.

B3 showed a kon of 37500 M⁻¹ s⁻¹.
